Source: US20250352661A1 (MYTHIC THERAPEUTICS, published 2025)

T1: Human LRRC15 Protein, His Tag (Acro Biosystems) (human, UniProt Q8TF66 22-538, limits assumed)
T1 construct: Bought protein with His tag
T1 sequence (looked up): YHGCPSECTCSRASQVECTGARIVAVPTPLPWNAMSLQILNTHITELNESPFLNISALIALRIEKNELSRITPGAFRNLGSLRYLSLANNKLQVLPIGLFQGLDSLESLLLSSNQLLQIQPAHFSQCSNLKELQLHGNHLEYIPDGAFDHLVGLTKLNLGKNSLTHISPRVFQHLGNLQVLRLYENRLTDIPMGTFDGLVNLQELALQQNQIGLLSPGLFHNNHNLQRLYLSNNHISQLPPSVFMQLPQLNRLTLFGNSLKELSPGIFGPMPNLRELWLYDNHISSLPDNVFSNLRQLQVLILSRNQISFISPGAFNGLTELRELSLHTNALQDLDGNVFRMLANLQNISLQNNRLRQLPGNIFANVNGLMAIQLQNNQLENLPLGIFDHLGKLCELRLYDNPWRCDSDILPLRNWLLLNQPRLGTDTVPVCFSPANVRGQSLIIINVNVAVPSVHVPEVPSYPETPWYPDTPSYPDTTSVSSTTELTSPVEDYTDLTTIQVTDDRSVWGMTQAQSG


Each binder was assayed against T1, Human LRRC15 Protein, His Tag (Acro …) (assay: BLI; dissociation pH 7.4 black, pH 5.4 grey [D00010 FIG. 1H]).
From the text: For each individual plot, antigen binding proteins were captured on anti-human Fc biosensors and associated with LRRC15 at pH 7.4. Dissociation was at pH 7.4 (black) or pH 5.4 (grey). Major X-axis ticks=100 seconds, with left dashed vertical line=0 seconds. Major Y-axis ticks=0.5 nm and octet plots are shown MYT5712 and MYT6080-MYT6121.
Multiple LRRC15-binding monoclonal antibodies have been described in the literature and can be used as a template for engineering pH-dependent binding. We selected discovery RabMAb clone 15G7 (rabbit VH SEQ ID NO: 378, rabbit VL SEQ ID NO: 451; humanized VH SEQ ID NO: 382, humanized VL SEQ ID NO: 455) as a LRRC15-binding monoclonal antibody for pH-engineering via histidine scanning. […] To generate pH-dependent sequence variants, individual amino acid residues within the heavy chain CDRs were systematically substituted with a histidine (or alanine if H was already present in a given position; e.g., MYT6099), one at a time (rabbit, MYT6080-6121). Desirable mutations were transferred to a humanized framework (humanized, MYT 8387-8411). After allowing for four days of protein expression, cell culture supernatants were collected, quantified by SDS-PAGE analysis, and the pH dependence of the variant was evaluated using biolayer interferometry (BLI) on an Octet RED 96e instrument. Briefly, cell culture supernatants were diluted based on qualitative expression level of the variant determined by visual examination of SDS-PAGE gels, 5 μL of cell culture supernatant was diluted into 195 μL of 1×PBST, pH 7.4 for high expressors, 25 μL of cell culture supernatant was diluted into 175 μL of 1×PBST, pH 7.4 for medium expressors and 100 μL of cell culture supernatant was diluted into 100 μL of 1×PBST, pH 7.4 for low expressors for loading onto the sensor tips.

binding result | Binder
no binding (tested: 50 nM LRRC15) | MYT8429 (antibody, V domains shown, hu15G7 VL G30H, Y32H, W93H; human Fc) VH: EVQLVESGGGLVQPGGSLRLSCTASGLDFRRTNYICWVRQAPGKGLEWVGCIYIADVVHYYASWAKGRFTFSRDTSKNTVYLQMNSLRAEDTAVYYCARGADGGFVYGMDLWGQGTLVTVSS VL: EIVMTQSPSTLSASVGDRVIITCQASQSIHNHLSWYQQKPGKAPKRLIYSASTLPSGVPSRFSGSGSGAEFTLTISSLQPDDFATYYCQNNYHLAGYGHPFGQGTKLTVL
no binding (tested: 50 nM LRRC15) | MYT8434 (antibody, V domains shown, hu15G7 VL Y32H, Y92H, W93H; human Fc) VH: EVQLVESGGGLVQPGGSLRLSCTASGLDFRRTNYICWVRQAPGKGLEWVGCIYIADVVHYYASWAKGRFTFSRDTSKNTVYLQMNSLRAEDTAVYYCARGADGGFVYGMDLWGQGTLVTVSS VL: EIVMTQSPSTLSASVGDRVIITCQASQSIGNHLSWYQQKPGKAPKRLIYSASTLPSGVPSRFSGSGSGAEFTLTISSLQPDDFATYYCQNNHHLAGYGHPFGQGTKLTVL
no binding (tested: 50 nM LRRC15) | MYT8423 (antibody, V domains shown, hu15G7 VL Y32H, W93H; human Fc) VH: EVQLVESGGGLVQPGGSLRLSCTASGLDFRRTNYICWVRQAPGKGLEWVGCIYIADVVHYYASWAKGRFTFSRDTSKNTVYLQMNSLRAEDTAVYYCARGADGGFVYGMDLWGQGTLVTVSS VL: EIVMTQSPSTLSASVGDRVIITCQASQSIGNHLSWYQQKPGKAPKRLIYSASTLPSGVPSRFSGSGSGAEFTLTISSLQPDDFATYYCQNNYHLAGYGHPFGQGTKLTVL
binds | MYT8430 (antibody, V domains shown, hu15G7 VL G30H, Y32H, G96H; human Fc) VH: EVQLVESGGGLVQPGGSLRLSCTASGLDFRRTNYICWVRQAPGKGLEWVGCIYIADVVHYYASWAKGRFTFSRDTSKNTVYLQMNSLRAEDTAVYYCARGADGGFVYGMDLWGQGTLVTVSS VL: EIVMTQSPSTLSASVGDRVIITCQASQSIHNHLSWYQQKPGKAPKRLIYSASTLPSGVPSRFSGSGSGAEFTLTISSLQPDDFATYYCQNNYWLAHYGHPFGQGTKLTVL
binds | MYT8433 (antibody, V domains shown, hu15G7 VL G30H, W93H, G96H; human Fc) VH: EVQLVESGGGLVQPGGSLRLSCTASGLDFRRTNYICWVRQAPGKGLEWVGCIYIADVVHYYASWAKGRFTFSRDTSKNTVYLQMNSLRAEDTAVYYCARGADGGFVYGMDLWGQGTLVTVSS VL: EIVMTQSPSTLSASVGDRVIITCQASQSIHNYLSWYQQKPGKAPKRLIYSASTLPSGVPSRFSGSGSGAEFTLTISSLQPDDFATYYCQNNYHLAHYGHPFGQGTKLTVL
binds | MYT8424 (antibody, V domains shown, hu15G7 VL Y32H, G96H; human Fc) VH: EVQLVESGGGLVQPGGSLRLSCTASGLDFRRTNYICWVRQAPGKGLEWVGCIYIADVVHYYASWAKGRFTFSRDTSKNTVYLQMNSLRAEDTAVYYCARGADGGFVYGMDLWGQGTLVTVSS VL: EIVMTQSPSTLSASVGDRVIITCQASQSIGNHLSWYQQKPGKAPKRLIYSASTLPSGVPSRFSGSGSGAEFTLTISSLQPDDFATYYCQNNYWLAHYGHPFGQGTKLTVL

More lines, now with the values behind:

Binder | binding result
MYT8413 (antibody, V domains shown, hu15G7 VL G30H; human Fc) VH: EVQLVESGGGLVQPGGSLRLSCTASGLDFRRTNYICWVRQAPGKGLEWVGCIYIADVVHYYASWAKGRFTFSRDTSKNTVYLQMNSLRAEDTAVYYCARGADGGFVYGMDLWGQGTLVTVSS VL: EIVMTQSPSTLSASVGDRVIITCQASQSIHNYLSWYQQKPGKAPKRLIYSASTLPSGVPSRFSGSGSGAEFTLTISSLQPDDFATYYCQNNYWLAGYGHPFGQGTKLTVL | binds
MYT8421 (antibody, V domains shown, hu15G7 VL G30H, G96H; human Fc) VH: EVQLVESGGGLVQPGGSLRLSCTASGLDFRRTNYICWVRQAPGKGLEWVGCIYIADVVHYYASWAKGRFTFSRDTSKNTVYLQMNSLRAEDTAVYYCARGADGGFVYGMDLWGQGTLVTVSS VL: EIVMTQSPSTLSASVGDRVIITCQASQSIHNYLSWYQQKPGKAPKRLIYSASTLPSGVPSRFSGSGSGAEFTLTISSLQPDDFATYYCQNNYWLAHYGHPFGQGTKLTVL | binds
MYT8414 (antibody, V domains shown, hu15G7 VL Y32H; human Fc) VH: EVQLVESGGGLVQPGGSLRLSCTASGLDFRRTNYICWVRQAPGKGLEWVGCIYIADVVHYYASWAKGRFTFSRDTSKNTVYLQMNSLRAEDTAVYYCARGADGGFVYGMDLWGQGTLVTVSS VL: EIVMTQSPSTLSASVGDRVIITCQASQSIGNHLSWYQQKPGKAPKRLIYSASTLPSGVPSRFSGSGSGAEFTLTISSLQPDDFATYYCQNNYWLAGYGHPFGQGTKLTVL | binds
MYT8427 (antibody, V domains shown, hu15G7 VL W93H, G96H; human Fc) VH: EVQLVESGGGLVQPGGSLRLSCTASGLDFRRTNYICWVRQAPGKGLEWVGCIYIADVVHYYASWAKGRFTFSRDTSKNTVYLQMNSLRAEDTAVYYCARGADGGFVYGMDLWGQGTLVTVSS VL: EIVMTQSPSTLSASVGDRVIITCQASQSIGNYLSWYQQKPGKAPKRLIYSASTLPSGVPSRFSGSGSGAEFTLTISSLQPDDFATYYCQNNYHLAHYGHPFGQGTKLTVL | binds
MYT8425 (antibody, V domains shown, hu15G7 VL Y92H, W93H; human Fc) VH: EVQLVESGGGLVQPGGSLRLSCTASGLDFRRTNYICWVRQAPGKGLEWVGCIYIADVVHYYASWAKGRFTFSRDTSKNTVYLQMNSLRAEDTAVYYCARGADGGFVYGMDLWGQGTLVTVSS VL: EIVMTQSPSTLSASVGDRVIITCQASQSIGNYLSWYQQKPGKAPKRLIYSASTLPSGVPSRFSGSGSGAEFTLTISSLQPDDFATYYCQNNHHLAGYGHPFGQGTKLTVL | binds
MYT8418 (antibody, V domains shown, hu15G7 VL G30H, Y32H; human Fc) VH: EVQLVESGGGLVQPGGSLRLSCTASGLDFRRTNYICWVRQAPGKGLEWVGCIYIADVVHYYASWAKGRFTFSRDTSKNTVYLQMNSLRAEDTAVYYCARGADGGFVYGMDLWGQGTLVTVSS VL: EIVMTQSPSTLSASVGDRVIITCQASQSIHNHLSWYQQKPGKAPKRLIYSASTLPSGVPSRFSGSGSGAEFTLTISSLQPDDFATYYCQNNYWLAGYGHPFGQGTKLTVL | binds
MYT8431 (antibody, V domains shown, hu15G7 VL G30H, Y92H, W93H; human Fc) VH: EVQLVESGGGLVQPGGSLRLSCTASGLDFRRTNYICWVRQAPGKGLEWVGCIYIADVVHYYASWAKGRFTFSRDTSKNTVYLQMNSLRAEDTAVYYCARGADGGFVYGMDLWGQGTLVTVSS VL: EIVMTQSPSTLSASVGDRVIITCQASQSIHNYLSWYQQKPGKAPKRLIYSASTLPSGVPSRFSGSGSGAEFTLTISSLQPDDFATYYCQNNHHLAGYGHPFGQGTKLTVL | binds
MYT8422 (antibody, V domains shown, hu15G7 VL Y32H, Y92H; human Fc) VH: EVQLVESGGGLVQPGGSLRLSCTASGLDFRRTNYICWVRQAPGKGLEWVGCIYIADVVHYYASWAKGRFTFSRDTSKNTVYLQMNSLRAEDTAVYYCARGADGGFVYGMDLWGQGTLVTVSS VL: EIVMTQSPSTLSASVGDRVIITCQASQSIGNHLSWYQQKPGKAPKRLIYSASTLPSGVPSRFSGSGSGAEFTLTISSLQPDDFATYYCQNNHWLAGYGHPFGQGTKLTVL | binds
MYT8419 (antibody, V domains shown, hu15G7 VL G30H, Y92H; human Fc) VH: EVQLVESGGGLVQPGGSLRLSCTASGLDFRRTNYICWVRQAPGKGLEWVGCIYIADVVHYYASWAKGRFTFSRDTSKNTVYLQMNSLRAEDTAVYYCARGADGGFVYGMDLWGQGTLVTVSS VL: EIVMTQSPSTLSASVGDRVIITCQASQSIHNYLSWYQQKPGKAPKRLIYSASTLPSGVPSRFSGSGSGAEFTLTISSLQPDDFATYYCQNNHWLAGYGHPFGQGTKLTVL | binds
MYT8426 (antibody, V domains shown, hu15G7 VL Y92H, G96H; human Fc) VH: EVQLVESGGGLVQPGGSLRLSCTASGLDFRRTNYICWVRQAPGKGLEWVGCIYIADVVHYYASWAKGRFTFSRDTSKNTVYLQMNSLRAEDTAVYYCARGADGGFVYGMDLWGQGTLVTVSS VL: EIVMTQSPSTLSASVGDRVIITCQASQSIGNYLSWYQQKPGKAPKRLIYSASTLPSGVPSRFSGSGSGAEFTLTISSLQPDDFATYYCQNNHWLAHYGHPFGQGTKLTVL | binds
MYT8420 (antibody, V domains shown, hu15G7 VL G30H, W93H; human Fc) VH: EVQLVESGGGLVQPGGSLRLSCTASGLDFRRTNYICWVRQAPGKGLEWVGCIYIADVVHYYASWAKGRFTFSRDTSKNTVYLQMNSLRAEDTAVYYCARGADGGFVYGMDLWGQGTLVTVSS VL: EIVMTQSPSTLSASVGDRVIITCQASQSIHNYLSWYQQKPGKAPKRLIYSASTLPSGVPSRFSGSGSGAEFTLTISSLQPDDFATYYCQNNYHLAGYGHPFGQGTKLTVL | binds
